The text below walks through data of patent US20220259268A1 (NATIONAL UNIVERSITY CORPORATION TOKAI NATIONAL HIGHER …, published 2022).

The data set concerns the molecule itself. The data set is described as follows: dynamic light scattering of liposomes carrying Nhead-SNAP on the surface layer.

B1: Nhead-SNAP fusion peptide (AtaA59-325-GCN4pII-SNAP-His) (other)
chain: not shown
notes: also called E. coli recombinant Nhead-SNAP
Regarding B1, the binding result is on record as “no binding”.
